Biological target: Fluorescently labeled ATS (intracellular segment) of PfEMP1 variant PF08_0141, full-length segment (P. falciparum, 5-FAM label)
Assay: fluorescence polarisation

B1: PFI1780w PHIST domain (as used in fluorescence polarization) (domain or fragment)
chain: SLSDEINKCDMKKYTAEEINEMINSSNEFINRNDMNIIFSYVHESEREKFKKVEENIFKFIQSIVETYKIPDEYKMRKFKFAHFEMQGYALKQEKFLLEYAFLSLNGKLCERKKFKEVLEYVKREWIEFRKSMFDVWKEKLASEFREHGEMLNQKRKLKQHEL
  fold lower affinity than PFE1605w: ~30 fold

Source: article PMC4202109 (The FASEB Journal, 2014)
